Laboratory results reported in patent US20140087995A1 (published 2014).
Numbered stars: 1 amine (or outer) side, 2 acyl side, 3 side chain; on linkers, the order of the positions; unused ones are H or OH. Bridge positions count the residues as written; N and C are the ends. Side chains are listed from the residue outwards. Ends that are not written are not given here. * marks the point of attachment. C20 diacid = O=C(O)CCCCCCCCCCCCCCCCCCC(=O)*; γGlu = O=C(O)[C@H](CCC(=O)[*:2])N[*:1]

T1: rat calcitonin receptor (rat, UniProt P32214 25-516)
T1 construct: whole, on cells; Membranes of transiently transfected BHK tk'ts 13 cells; also called rCTR; rat calcitonin (a) receptor
T1 sequence (looked up): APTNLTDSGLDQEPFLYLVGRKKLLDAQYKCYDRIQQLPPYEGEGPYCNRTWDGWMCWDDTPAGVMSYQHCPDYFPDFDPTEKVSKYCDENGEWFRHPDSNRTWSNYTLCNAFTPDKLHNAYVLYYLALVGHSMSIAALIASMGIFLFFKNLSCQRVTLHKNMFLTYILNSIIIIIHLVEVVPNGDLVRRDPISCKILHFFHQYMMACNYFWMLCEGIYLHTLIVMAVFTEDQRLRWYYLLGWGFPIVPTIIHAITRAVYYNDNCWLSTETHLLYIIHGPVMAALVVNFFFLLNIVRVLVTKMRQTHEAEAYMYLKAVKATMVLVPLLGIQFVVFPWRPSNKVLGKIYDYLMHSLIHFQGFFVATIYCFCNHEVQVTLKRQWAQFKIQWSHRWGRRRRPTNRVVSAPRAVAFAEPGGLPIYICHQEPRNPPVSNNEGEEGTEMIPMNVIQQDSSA

T2: rat amylin receptor (rat calcitonin receptor + rat RAMP 3) (rat, UniProt P32214 25-516; Q9JJ73 23-147)
T2 construct: whole, on cells; Membranes of transiently transfected BHK tk'ts 13 cells; also called rAmylin-R; rat amylin 3(a) receptor
T2 sequence (looked up) 1: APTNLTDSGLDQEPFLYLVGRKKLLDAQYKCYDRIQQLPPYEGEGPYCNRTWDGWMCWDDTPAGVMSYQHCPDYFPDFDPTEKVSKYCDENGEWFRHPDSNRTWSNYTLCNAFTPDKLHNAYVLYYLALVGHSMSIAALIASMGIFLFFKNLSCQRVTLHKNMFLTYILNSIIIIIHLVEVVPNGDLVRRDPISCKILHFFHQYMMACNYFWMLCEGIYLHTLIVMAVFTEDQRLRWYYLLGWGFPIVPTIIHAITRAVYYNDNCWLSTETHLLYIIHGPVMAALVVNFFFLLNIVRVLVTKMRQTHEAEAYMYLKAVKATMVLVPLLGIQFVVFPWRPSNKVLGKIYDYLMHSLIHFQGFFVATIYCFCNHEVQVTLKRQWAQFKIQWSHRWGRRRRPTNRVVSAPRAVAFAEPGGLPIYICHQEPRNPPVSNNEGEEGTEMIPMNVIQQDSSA
T2 sequence (looked up) 2: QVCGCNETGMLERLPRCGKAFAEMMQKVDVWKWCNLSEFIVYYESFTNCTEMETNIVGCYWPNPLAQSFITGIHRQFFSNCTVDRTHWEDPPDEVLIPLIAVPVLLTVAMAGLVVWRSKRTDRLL

T3: human calcitonin receptor (human, UniProt P30988 25-474)
T3 construct: whole, on cells; Membranes of stably transfected cells; also called hCTR; hCT
T3 sequence (looked up): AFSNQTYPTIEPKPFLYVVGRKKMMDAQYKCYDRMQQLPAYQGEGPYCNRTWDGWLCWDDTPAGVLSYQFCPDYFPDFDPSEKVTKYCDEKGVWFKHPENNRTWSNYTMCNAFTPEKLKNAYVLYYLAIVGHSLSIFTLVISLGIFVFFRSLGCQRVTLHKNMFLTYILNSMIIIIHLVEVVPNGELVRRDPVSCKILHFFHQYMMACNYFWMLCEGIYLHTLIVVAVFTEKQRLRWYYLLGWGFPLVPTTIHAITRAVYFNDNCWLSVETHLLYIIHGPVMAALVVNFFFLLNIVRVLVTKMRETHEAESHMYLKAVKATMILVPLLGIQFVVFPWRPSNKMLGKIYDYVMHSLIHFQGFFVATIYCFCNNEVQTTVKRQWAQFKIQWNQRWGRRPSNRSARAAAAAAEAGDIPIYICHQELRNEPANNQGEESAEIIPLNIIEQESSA


Key:
[1] = target: T1, rat calcitonin receptor; assay: ratio of IC50 on rat calcitonin receptor to IC50 on rat amylin receptor (reference m40)
[2] = target: T1, rat calcitonin receptor; assay: SPA competition with 125I-calcitonin on membranes of BHK tk'ts 13 cells with rat calcitonin receptor (Assay VIII)
[3] = target: T2, rat amylin receptor (rat calcitonin …); assay: SPA competition with 125I-rat amylin on membranes of BHK tk'ts 13 cells with rat calcitonin receptor + rat RAMP3 (Assay VI)
[4] = target: T3, human calcitonin receptor; assay: ratio of IC50 on human calcitonin receptor to IC50 on human amylin receptor (reference m42), SPA competition
Outline: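 Scintillation proximity competition binding on cell membranes at 35 ng/μL with SPA beads, in 50 mM Hepes pH 7.4, 1 mM CaCl2, 5 mM MgCl₂, 0.1% OA, 0.02% Tween20. Incubated 120 min at 25° C with shaking. IC₅₀ from one-site competition fit.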

Binder | Ratio rCT/rAmylin binding [1] | IC50 [2] [nM] | IC50 [3] [nM] | Ratio hCT/hAmylin binding [4]
K([γGlu-C20 diacid])CNTATCATQRLAEFLRHSSPNFGAIPSSTNVGSHTY-NH2 (disulfide 2-7; N-terminus assumed; SMILES CC[C@H](C)[C@H](NC(=O)[C@H](C)NC(=O)CNC(=O)[C@H](Cc1ccccc1)NC(=O)[C@H](CC(N)=O)NC(=O)[C@@H]1CCCN1C(=O)[C@H](CO)NC(=O)[C@H](CO)NC(=O)[C@H](Cc1c[nH]cn1)NC(=O)[C@H](CCCNC(=N)N)NC(=O)[C@H](CC(C)C)NC(=O)[C@H](Cc1ccccc1)NC(=O)[C@H](CCC(=O)O)NC(=O)[C@H](C)NC(=O)[C@H](CC(C)C)NC(=O)[C@H](CCCNC(=N)N)NC(=O)[C@H](CCC(N)=O)NC(=O)[C@@H](NC(=O)[C@H](C)NC(=O)[C@@H]1CSSC[C@H](NC(=O)[C@@H](N)CCCCNC(=O)CC[C@H](NC(=O)CCCCCCCCCCCCCCCCCCC(=O)O)C(=O)O)C(=O)N[C@@H](CC(N)=O)C(=O)N[C@@H]([C@@H](C)O)C(=O)N[C@@H](C)C(=O)N[C@@H]([C@@H](C)O)C(=O)N1)[C@@H](C)O)C(=O)N1CCC[C@H]1C(=O)N[C@@H](CO)C(=O)N[C@@H](CO)C(=O)N[C@H](C(=O)N[C@@H](CC(N)=O)C(=O)N[C@H](C(=O)NCC(=O)N[C@@H](CO)C(=O)N[C@@H](Cc1c[nH]cn1)C(=O)N[C@H](C(=O)N[C@@H](Cc1ccc(O)cc1)C(N)=O)[C@@H](C)O)C(C)C)[C@@H](C)O, Synthetic acylated analogue of human amylin) | 22.7 | 26.3 | 1.16 | 26.4
K([γGlu-C20 diacid])CNTATCATQRLAEFLRHSSPNFGAIPSSTNVGPHTY-NH2 (disulfide 2-7, Synthetic acylated analogue of human amylin) | 52.2 | 5.43 | 0.104 | 21.2
K([γGlu-γGlu-C20 diacid])CNTATCATQRLANFLRHSSPNFGAIPSSTPVGPRTY-NH2 (disulfide 2-7; N-terminus assumed; SMILES CC[C@H](C)[C@H](NC(=O)[C@H](C)NC(=O)CNC(=O)[C@H](Cc1ccccc1)NC(=O)[C@H](CC(N)=O)NC(=O)[C@@H]1CCCN1C(=O)[C@H](CO)NC(=O)[C@H](CO)NC(=O)[C@H](Cc1c[nH]cn1)NC(=O)[C@H](CCCNC(=N)N)NC(=O)[C@H](CC(C)C)NC(=O)[C@H](Cc1ccccc1)NC(=O)[C@H](CC(N)=O)NC(=O)[C@H](C)NC(=O)[C@H](CC(C)C)NC(=O)[C@H](CCCNC(=N)N)NC(=O)[C@H](CCC(N)=O)NC(=O)[C@@H](NC(=O)[C@H](C)NC(=O)[C@@H]1CSSC[C@H](NC(=O)[C@@H](N)CCCCNC(=O)CC[C@H](NC(=O)CC[C@H](NC(=O)CCCCCCCCCCCCCCCCCCC(=O)O)C(=O)O)C(=O)O)C(=O)N[C@@H](CC(N)=O)C(=O)N[C@@H]([C@@H](C)O)C(=O)N[C@@H](C)C(=O)N[C@@H]([C@@H](C)O)C(=O)N1)[C@@H](C)O)C(=O)N1CCC[C@H]1C(=O)N[C@@H](CO)C(=O)N[C@@H](CO)C(=O)N[C@H](C(=O)N1CCC[C@H]1C(=O)N[C@H](C(=O)NCC(=O)N1CCC[C@H]1C(=O)N[C@@H](CCCNC(=N)N)C(=O)N[C@H](C(=O)N[C@@H](Cc1ccc(O)cc1)C(N)=O)[C@@H](C)O)C(C)C)[C@@H](C)O, Synthetic acylated analogue of human amylin) | 137 | 52.4 | 0.381 | 48.6
K([γGlu-γGlu-C20 diacid])CNTATCATQRLADFLRHSSPNFGAIPSSTNVGPETY-NH2 (disulfide 2-7, Synthetic acylated analogue of human amylin) | 98.5 | 31.9 | 0.324 | 49.8
K([γGlu-γGlu-C20 diacid])CNTATCATQRLADFLRHSSPNFGAIPSSTNVGPRTY-NH2 (disulfide 2-7, Synthetic acylated analogue of human amylin; also called compound 130) | 240 | 223 | 0.93 | 280
K([γGlu-C20 diacid])CNTATCATQRLAEFLRHSSPNFGAIPSSTNVGPRTY-NH2 (disulfide 2-7; N-terminus assumed; SMILES CC[C@H](C)[C@H](NC(=O)[C@H](C)NC(=O)CNC(=O)[C@H](Cc1ccccc1)NC(=O)[C@H](CC(N)=O)NC(=O)[C@@H]1CCCN1C(=O)[C@H](CO)NC(=O)[C@H](CO)NC(=O)[C@H](Cc1c[nH]cn1)NC(=O)[C@H](CCCNC(=N)N)NC(=O)[C@H](CC(C)C)NC(=O)[C@H](Cc1ccccc1)NC(=O)[C@H](CCC(=O)O)NC(=O)[C@H](C)NC(=O)[C@H](CC(C)C)NC(=O)[C@H](CCCNC(=N)N)NC(=O)[C@H](CCC(N)=O)NC(=O)[C@@H](NC(=O)[C@H](C)NC(=O)[C@@H]1CSSC[C@H](NC(=O)[C@@H](N)CCCCNC(=O)CC[C@H](NC(=O)CCCCCCCCCCCCCCCCCCC(=O)O)C(=O)O)C(=O)N[C@@H](CC(N)=O)C(=O)N[C@@H]([C@@H](C)O)C(=O)N[C@@H](C)C(=O)N[C@@H]([C@@H](C)O)C(=O)N1)[C@@H](C)O)C(=O)N1CCC[C@H]1C(=O)N[C@@H](CO)C(=O)N[C@@H](CO)C(=O)N[C@H](C(=O)N[C@@H](CC(N)=O)C(=O)N[C@H](C(=O)NCC(=O)N1CCC[C@H]1C(=O)N[C@@H](CCCNC(=N)N)C(=O)N[C@H](C(=O)N[C@@H](Cc1ccc(O)cc1)C(N)=O)[C@@H](C)O)C(C)C)[C@@H](C)O, Synthetic acylated analogue of human amylin) | 45.5 | 15.4 | 0.339 | 38.6
K([γGlu-C20 diacid])CNTATCATQRLAHFLRHSSPNFGAIPSSTPVGPNTY-NH2 (disulfide 2-7; N-terminus assumed; SMILES CC[C@H](C)[C@H](NC(=O)[C@H](C)NC(=O)CNC(=O)[C@H](Cc1ccccc1)NC(=O)[C@H](CC(N)=O)NC(=O)[C@@H]1CCCN1C(=O)[C@H](CO)NC(=O)[C@H](CO)NC(=O)[C@H](Cc1c[nH]cn1)NC(=O)[C@H](CCCNC(=N)N)NC(=O)[C@H](CC(C)C)NC(=O)[C@H](Cc1ccccc1)NC(=O)[C@H](Cc1c[nH]cn1)NC(=O)[C@H](C)NC(=O)[C@H](CC(C)C)NC(=O)[C@H](CCCNC(=N)N)NC(=O)[C@H](CCC(N)=O)NC(=O)[C@@H](NC(=O)[C@H](C)NC(=O)[C@@H]1CSSC[C@H](NC(=O)[C@@H](N)CCCCNC(=O)CC[C@H](NC(=O)CCCCCCCCCCCCCCCCCCC(=O)O)C(=O)O)C(=O)N[C@@H](CC(N)=O)C(=O)N[C@@H]([C@@H](C)O)C(=O)N[C@@H](C)C(=O)N[C@@H]([C@@H](C)O)C(=O)N1)[C@@H](C)O)C(=O)N1CCC[C@H]1C(=O)N[C@@H](CO)C(=O)N[C@@H](CO)C(=O)N[C@H](C(=O)N1CCC[C@H]1C(=O)N[C@H](C(=O)NCC(=O)N1CCC[C@H]1C(=O)N[C@@H](CC(N)=O)C(=O)N[C@H](C(=O)N[C@@H](Cc1ccc(O)cc1)C(N)=O)[C@@H](C)O)C(C)C)[C@@H](C)O, Synthetic acylated analogue of human amylin) | 72.4 | 9.05 | 0.125 | 24.8
